Assays:
Assay in all cases: oriented sample solid-state NMR
[1] = target: wild-type sarcolipin (SLN^wt), recombinant (UniProt O00631 1-31)
[2] = target: SLN^ΔI3N4T5 (sarcolipin with I3, N4 and T5 deleted) (UniProt O00631 1-31, ΔI3N4T5)
[3] = target: SLN^ΔY29Q30Y31 (sarcolipin with Y29, Q30 and Y31 deleted) (UniProt O00631 1-31, ΔY29Q30Y31)
[4] = target: SLN^ΔT5R6E7 (sarcolipin with T5, R6 and E7 deleted) (UniProt O00631 1-31, ΔT5R6E7)

Measured: binding result

B1: sarcoplasmic reticulum Ca2+-ATPase SERCA1a purified from rabbit skeletal muscle (enzyme)
chain: MEAAHSKSTEECLAYFGVSETTGLTPDQVKRHLEKYGHNELPAEEGKSLWELVIEQFEDLLVRILLLAACISFVLAWFEEGEETITAFVEPFVILLILIANAIVGVWQERNAENAIEALKEYEPEMGKVYRADRKSVQRIKARDIVPGDIVEVAVGDKVPADIRILSIKSTTLRVDQSILTGESVSVIKHTEPVPDPRAVNQDKKNMLFSGTNIAAGKALGIVATTGVSTEIGKIRDQMAATEQDKTPLQQKLDEFGEQLSKVISLICVAVWLINIGHFNDPVHGGSWIRGAIYYFKIAVALAVAAIPEGLPAVITTCLALGTRRMAKKNAIVRSLPSVETLGCTSVICSDKTGTLTTNQMSVCKMFIIDKVDGDFCSLNEFSITGSTYAPEGEVLKNDKPIRSGQFDGLVELATICALCNDSSLDFNETKGVYEKVGEATETALTTLVEKMNVFNTEVRNLSKVERANACNSVIRQLMKKEFTLEFSRDRKSMSVYCSPAKSSRAAVGNKMFVKGAPEGVIDRCNYVRVGTTRVPMTGPVKEKILSVIKEWGTGRDTLRCLALATRDTPPKREEMVLDDSSRFMEYETDLTFVGVVGMLDPPRKEVMGSIQLCRDAGIRVIMITGDNKGTAIAICRRIGIFGENEEVADRAYTGREFDDLPLAEQREACRRACCFARVEPSHKSKIVEYLQSYDEITAMTGDGVNDAPALKKAEIGIAMGSGTAVAKTASEMVLADDNFSTIVAAVEEGRAIYNNMKQFIRYLISSNVGEVVCIFLTAALGLPEALIPVQLLWVNLVTDGLPATALGFNPPDLDIMDRPPRSPKEPLISGWLFFRYMAIGGYVGAATVGAAAWWFMYAEDGPGVTYHQLTHFMQCTEDHPHFEGLDCEIFEAPEPMTMALSVLVTIEMCNALNSLSENQSLMRMPPWVNIWLLGSICLSMSLHFLILYVDPLPMIFKLKALDLTQWLMVLKISLPVIGLDEILKFIARNYLEG
binds: all assays above
